From article PMC5523967, “Dimerized Domain V of Beta2-Glycoprotein I Is Sufficient to Upregulate Procoagulant Activity in PMA-Treated U937 Monocytes and Require Intact Residues in Two Phospholipid-Binding Loops” (Antibodies, 2017)

Key:
Test in all cases: ITC; A1 (500 μM) in the injection syringe titrated in 2 μL increments into HA-DV or HA-DV variant (50 μM) in the sample cell; 298 K; 25 mM Hepes pH 7.1, 50 mM NaCl, 2 mM CaCl2; one site binding model
Details in all cases: both partners purified
[1] = biological target: T1, HA-tagged domain V of human β2GPI (HA-DV), wild type (human, UniProt P02749 263-345)
T1 construct: beta2-glycoprotein I (β2GPI), human, domain V, residues 244-326; also called wild type HA-DV; β2GPI-DV; source: expressed from a pET15b vector and purified as previously described [34]; not shown: HA, N-terminal, kept
T1 sequence (looked up): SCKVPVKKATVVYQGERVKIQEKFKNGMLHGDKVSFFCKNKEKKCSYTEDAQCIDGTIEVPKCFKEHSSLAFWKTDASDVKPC

HA-DV Lys308/Arg = biological target: T2, HA-DV Lys308/Arg (human, UniProt P02749 263-345, Lys308/Arg)
T2 construct: beta2-glycoprotein I (β2GPI), human, domain V, residues 244-326, Lys308 to Arg; Point mutant of m2; also called Lys308/Arg variant of HA-DV; source: expressed from a pET15b vector and purified as previously described [34]; not shown: HA, N-terminal, kept
T2 sequence (looked up): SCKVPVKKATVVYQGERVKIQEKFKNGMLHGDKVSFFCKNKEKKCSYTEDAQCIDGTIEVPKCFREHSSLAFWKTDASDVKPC

HA-DV Lys282/Arg = biological target: T3, HA-DV Lys282/Arg (human, UniProt P02749 263-345, Lys282/Arg)
T3 construct: beta2-glycoprotein I (β2GPI), human, domain V, residues 244-326, Lys282 to Arg; Point mutant of m2; also called Lys282/Arg variant of HA-DV; source: expressed from a pET15b vector and purified as previously described [34]; not shown: HA, N-terminal, kept
T3 sequence (looked up): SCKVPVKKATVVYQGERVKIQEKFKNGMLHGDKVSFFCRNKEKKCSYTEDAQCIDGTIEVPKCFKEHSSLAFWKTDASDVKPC

HA-DV Leu313/Asn = biological target: T4, HA-DV Leu313/Asn (human, UniProt P02749 263-345, Leu313/Asn)
T4 construct: beta2-glycoprotein I (β2GPI), human, domain V, residues 244-326, Leu313 to Asn; Point mutant of m2; also called Leu313/Asn variant of HA-DV; source: expressed from a pET15b vector and purified as previously described [34]; not shown: HA, N-terminal, kept
T4 sequence (looked up): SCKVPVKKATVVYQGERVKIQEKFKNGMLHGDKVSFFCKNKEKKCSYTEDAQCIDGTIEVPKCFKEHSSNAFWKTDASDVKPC

[2] = biological target: T5, HA-DV Leu313/Asp_Phe315/Ser (human, UniProt P02749 263-345, Leu313/Asp | Phe315/Ser)
T5 construct: beta2-glycoprotein I (β2GPI), human, domain V, residues 244-326, Leu313 to Asp and Phe315 to Ser; Double mutant of m2; source: expressed from a pET15b vector and purified as previously described [34]; not shown: HA, N-terminal, kept
T5 sequence (looked up): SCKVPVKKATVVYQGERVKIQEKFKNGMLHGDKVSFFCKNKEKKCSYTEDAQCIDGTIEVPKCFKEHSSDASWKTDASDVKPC

binding result [1]: binds
binding result (HA-DV Lys308/Arg): binds
binding result (HA-DV Lys282/Arg): binds
binding result (HA-DV Leu313/Asn): binds
binding result [2]: binds
B1: A1, fragment of mouse ApoER2 (residues 12-47) in which Asp is substituted for Asn36 (domain or fragment)
chain: not shown
notes: source: Escherichia coli, purified as previously described [64]
